Source: the DeepSol protein solubility set

Assay: soluble on expression in E. coli; label from the status in PepcDB or PDB records

Sequence | soluble on expression in E. coli
MGSDKIHHHHHHMEMVMKNKRVAIIGAGPSGIAQLRAFESAEKQGHEIPELVCFEKQDTWGGQWNYSWRTGTDSYGEPVHSSMYRNLWSNGPKEVLEFAEYSFDEHFGKPISSYPPREVLWDYIAGRAKKSNVEKYIKFAHVVRWVSFDEATKLFTVTVENLRTGETSSDTYDNVIVGAGHFSFPNVPHFDGVETFPGQIMHAHEFRGAEAVADKDILLIGASYSAEDIGTQAYKMGARSVTFSYRSNPMGYEWPEEMTELPLVERFDGSEVHFVNGEKRKVDIVVFCTGYLHHYPFMPSELTLSSPNNLYPDTLYRGVVSEANNQLFWLGAQDQWLTFNMFDAQAWYVRDVILGRVALPSKEAQRNHMDKWLSRFEGLKSENDQIDFQCDYVEDLIDQTDYPSFDLKEVANILKGWVKSKEEDILNYRDYTYTSVMTGTTSVEHHTPWMIELDDSLERYLSEPQEDEARQVYRGKKVRDKA | not soluble
GVSTAVAQDFTIAAKHAIAVEANTGKILYEKDATQPVEIASITKLITVYLVYEALENGSITLSTPVDISDYPYQLTTNSEASNIPMEARNYTVEELLEATLVSSANSAAIALAEKIAGSEKDFVDMMRAKLLEWGIQDATVVNTTGLNNETLGDNIYPGSKKDEENKLSAYDVAIVARNLIKKYPQVLEITKKPSSTFAGMTITSTNYMLEGMPAYRGGFDGLKTGTTDKAGESFVGTTVEKGMRVITVVLNADHQDNNPYARFTATSSLMDYISSTFTLRKIVQQGDAYQDSKAPVQDGKEDTVIAVAPEDIYLIERVGNQSSQSVQFTPDSKAIPAPLEAGTVVGHLTYEDKDLIGQGYITTERPSFEMVADKKIEK | soluble
MKKFFLFLVLPIFLFASPLKAVFDCAVGDLDWISLRLSLIKKTAEQLMEEGKSYRFVITIHSHCIKVVDADLKKFPESERRKIELIQSQLKTLKEMYSVDVKACQIAMNRGKIKKVPPFVETVPNSWITLIELQNKGFAFVPF | not soluble
MFFKKNLTTAAICAALSVAAFSAMATDSTDTELTIIGEYTPGACTPVVTGGGIVDYGKHHNSALNPTGKSNKLVQLGRKNSTLNITCTAPTLIAVTSKDNRQSTIVALNDTSYIEKAYDTLVDMKGTKNAFGLGSAPNGQKIGAASIGIDRSNGGIHAADDTGEIPVDLIQTDHWSAATPTWKASSNGAFCSLTSCSAIERGYSVAKTGELTPVAITAVTFPLLIDAAVNDNTILGSDETIKLDGNVTISVQYL | not soluble
MGSDKIHHHHHHMKTIAIRDVTGIMEPLPGFSVVRTDGSDGQRSIKLNGYKTTNNQYGYQFVKNENTVVYDDEEYIIKTHRERTYRKGVGVEATAIHRIFDDLRNNYIYDEKTGTLRLDAMLSFALEGSGYTFEIDTTDLPASVRVENFGWNNSLALFRDILEKFGAEFDYKGKKIYVAKKFGIQRDEPFLRYRFNVKDPEKEIDTSSFATYIRGYGKKDDKGNYLFAEYTSPLAKIYGIKHADPVKDERYTDKDSLLAAMKKQLNDNIDISLTFTAIELESMGLRDIKKGDYVWCVIEPFDLNVQLRAVSREDYSDETKSPTFTFGTITKKASDIIASFNTTKKAVDKVIDTSTGKIKDSAIDTTGLTTKSEFQSHVDNKIVHITAEERAAWNAASNSIGDLTFITWSTPTLKNGWIQYTANTESYPIQYGKDAIGTVNIRGAVSSGVVGSSTPVFTLPAGFRPPFPHLFIGVSSVATDGTPQYFRGIIKTNGDVCIENISNKDTPNQFIGIYTQFKAI | not soluble
GPGSMWRITRLCCKQLIRDESLVSLPPAVHRLEVYRNAVSVDCEERICAELGLLLQREGHTAFAEGSTPQQKIVKHTYLELHGAHKDFTEVKSFQRKETRRLPGLLWSPTLVSWMNEVVPRVRVFPVGVMPDTARVVEHNMTGYEMHMEHPTVGCSFLYLSLLSDTVLTFDDEATGRYGEVFLPQRALMCCSGEIRWGWRFGEQSREVHTFVNASGVRRVVEPDLRLSVQLWKFTPQLLDARLLQDRVEESMKQREAEESNEVVETIAVDRKKNEEEHKGSASSHALFSALAEKGASGTGPLGGEYVEGRTQACKGVEGKSMTMEDIGRDYNTYKQQFQNVHGVLQEMKALQDAGQPINDMWLRKRILDGQKDDNHDAQDGFDPNDVEGTWDRVDAKARFYKARLKGMDYDGTANSNSSMPDVTEDAPLDMKKTIQKIAPLVKDGDKILASLPCGQ | not soluble
MLGMTHFSQQDNFSVAARVLGALFYYAPESAEAAPLVAVLTSDGWETQWPLPEASLAPLVTAFQTQCEETHAQAWQRLFVGPWALPSPPWGSVWLDRESVLFGDSTLALRQWMREKGIQFEMKQNEPEDHFGSLLLMAAWLAENGRQTECEELLAWHLFPWSTRFLDVFIEKAEHPFYRALGELARLTLAQWQSQLLIPVAVKPLFR | not soluble
MARFIARTKLNIDDIKEVDEYKALIPENNQYEELKKAIKEQGFLFPVIVNQNRELIDGYTRLRIARELGLTEIPAEVYETGGREEELDIIASLNLKRRHLTKDELVLLIDKIHEMKKRLKKDNIEEQNSGTGARISAIDKENISKNSVTEESREIREELKKLVPDVQINEDTIRKYLQIKKEVPWLVQYIGDEKKNKIGIRKAYEIYTLLSKKNLLDLDKRIPKTELTKLITDKEGRKILERDDLLQLILDHKMAVSQAINKLKTEEKIKQSKKKSRVKTEDEYAETDEEEEDETEEGQRELDENEEYPLLEEWQKAKEEEKQEAEQQLTPQLNVSPNSNTTQVTLEFSNVLKELSNKGFTKLDFNTDVVIAKINDKYYAILLEALKSLERGSKQYKELAEFLVSNNLAVYDPEEDNYIISWRSLNCS | soluble
MSHENQENYDDYNGDHDNKYDQQYDESSRGDDFGGRGRGFNGPPGGAGSFFGVPPAARGRGGPGMAPPGFAGRGRGFATPGMSSGFAPRGRGMPPGRGGYMPPYRGGYGVAPNGGPGAYGGPYNGGPGAYGAQAPGPNPQDQEQRLKRLSGCEEGQELWVETETAEGKKYFYHPVNRNTIWERPQNAKIVTQPELAQLIHRATEEEKNREERMPHGQIPQNPDDAWNEFNAPDGRKYYFNSITQENTWEKPKALIDQENGGGASPEPVQSAAIAEAQAKAQAALAAFMAQQKTSSNGGGGMPLSKAQASGAAAAAAVNAEAAKKKDSTRPISSTPVSGTPWCVVWTGDDKVFFYNPSTKCSVWERPPDTYGREDVDKLVQNPPSPKAEEENNQSKKESESESESDEDGPPKAKKSRAEKKKEALIAAQKKEKERPRQMLQKPVDPAIEAEMQAAKEREKVPLEERLKQFKEMLEEKNVSTSSTFEKELSKIVFDKRYLSLGATERRACFDAFCREKIESEKAERRKRVKEAKEEFQKLLAECELNGRSSYSSFTSKFGKDPRYKAVERNRDREDAFNDFVGELHKKEKDEKRAKKEKLKAAFVKLLEEQTGLTRKSKWSTTKKTLEDEERYIALDSSSTRESLFREFVANLGDETASDIEEEQEREKRLAAQTAIANRQKEVEAELGNQLRERTKESEKQKMGEHEDTYRNLLIDLIKSTENSWHEARRILRKDERYANCDMLDKTRKESLFDDHIKSLERKRREAFFQVLDNHEKITPMMRWRDAKKIIQDEEETFVKIASNSERKVERDFRDWQERRHDHLTDEFKEMLSETKIITHKSKKLMEEGEQHMDILSVLENDKRWVRMTAMSASERDRMLEDHIENLGRKGTPPPPTQQERDRRKQ | soluble
MGSDKIHHHHHHMTAEDTYKTIVEPSEGIYTEKRSKFIAIALPVRTLDEIKAHLETYQKKYYDARHVCYAYMLGAARKDFRANDNGEPSGTAGKPILGQINSNELTDILIIVVRYFGGIKLGTSGLIVAYKAAAAEAISAATIIEKTVDEEVTVMFEYPFMNDIMRIVKEEEPEILSQSYDMDCSMTLCIRRSMMPKLRARLEKVETARILDEE | not soluble
MAHHHHHHMEGEEYDKILVLNFGSQYFHLIVKRLNNIKIFSETKDYGVELKDIKDMNIKGVILSGGPYSVTEAGSPHLKKEVFEYFLEKKIPIFGICYGMQEIAVQMNGEVKKSKTSEYGCTDVNILRNDNINNITYCRNFGDSSSAMDLYSNYKLMNETCCLFENIKSDITTVWMNHNDEVTKIPENFYLVSSSENCLICSIYNKEYNIYGVQYHPEVYESLDGELMFYNFAYNICKCKKQFDPIRYHELELKNIEKYKHDHYVIAAMSGGIDSTVAAAYTHKIFKERFFGIFIDNGLLRKNEAENVYTFLKSTFPDMNITKIDASENFLSNLQGVTDPEQKRKIIGKLFIEEFEKAVNNIDIDINKTFLLQGTLYPDIIESKCSKNLSDTIKTHHNVGGLPKNLKFKLFEPFKYLFKDDVKTLSRELNLPEEITNRHPFPGPGLAIRVIGEINKHKLNILREVDDIFINDLKQYGLYNQISQAFAVLLSSKSVGVRGDARSYDYVCVLRAVKTSSFMTANWYQIPYDILDKITTRILSEVKGVNRILYDVSSKPPATIEFE | soluble
